Kd data for 1 molecule are collected here from US20240182563A1 (GENOME, published 2024).

The target of this assay is T1, Human CNTN-4 protein (human, UniProt Q8IWV2 19-1000, limits assumed).
T1 construct: soluble antigen run over the captured antibody; also called human CNTN4 (SPR analyte)
T1 sequence (looked up): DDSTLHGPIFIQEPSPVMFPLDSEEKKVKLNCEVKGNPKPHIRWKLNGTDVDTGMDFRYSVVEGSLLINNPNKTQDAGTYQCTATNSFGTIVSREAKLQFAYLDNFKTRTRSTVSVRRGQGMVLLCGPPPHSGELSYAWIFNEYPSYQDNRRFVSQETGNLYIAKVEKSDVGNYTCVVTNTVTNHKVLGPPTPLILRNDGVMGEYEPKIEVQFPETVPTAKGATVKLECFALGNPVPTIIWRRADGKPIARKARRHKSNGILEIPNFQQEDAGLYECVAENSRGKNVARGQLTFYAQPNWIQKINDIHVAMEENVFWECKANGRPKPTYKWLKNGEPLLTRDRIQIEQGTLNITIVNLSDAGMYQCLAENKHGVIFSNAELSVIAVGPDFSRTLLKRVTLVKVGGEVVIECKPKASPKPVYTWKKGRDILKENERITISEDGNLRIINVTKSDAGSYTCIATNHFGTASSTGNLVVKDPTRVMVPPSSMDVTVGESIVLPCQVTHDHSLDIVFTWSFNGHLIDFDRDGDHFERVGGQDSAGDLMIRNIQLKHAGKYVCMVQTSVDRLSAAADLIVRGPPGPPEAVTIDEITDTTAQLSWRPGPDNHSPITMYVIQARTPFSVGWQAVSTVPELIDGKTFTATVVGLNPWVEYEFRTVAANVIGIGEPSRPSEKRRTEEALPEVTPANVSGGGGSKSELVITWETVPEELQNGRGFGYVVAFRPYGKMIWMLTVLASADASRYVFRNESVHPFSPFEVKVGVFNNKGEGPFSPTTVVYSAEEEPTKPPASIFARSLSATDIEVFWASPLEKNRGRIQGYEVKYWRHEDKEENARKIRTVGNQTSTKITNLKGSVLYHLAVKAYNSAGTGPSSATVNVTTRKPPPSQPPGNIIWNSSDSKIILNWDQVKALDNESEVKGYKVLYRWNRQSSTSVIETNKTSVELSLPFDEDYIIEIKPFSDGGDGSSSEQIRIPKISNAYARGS
Description: SPR, antibody captured by anti-human IgG Fc on CM5 chip, CNTN4 as analyte. On the procedure:
Specifically, in order to bind anti-human IgG Fc (capture antibody) using amine coupling, CM5 chip was mounted, running buffer was allowed to flow, the chip was activated, and then capture antibody was attached thereto. Dextrin to which capture antibody was not attached was deactivated using ethanolamine, and then regeneration was performed using 3M magnesium chloride to clear analyte except capture antibody. The A-01 prepared at a concentration of 0.05 μg/mL was allowed to flow for 30 seconds at a rate of 10 μL/min for binding. Thereafter, human CNTN4 (400 nM to 0.78 nM) prepared by sequential dilution as an antigen was allowed to flow at a rate of 30 μL/min for 3 minutes to be bound, and dissociation was performed for 5 minutes. Then, in order to clear all analytes attached to the capture antibody, a regeneration solution (3M magnesium chloride) was allowed to flow at a rate of 20 μL/min for 30 seconds, and regeneration was performed. For each concentration of antigen, binding of A-01, binding of antigen, dissociation, and regeneration were repeated in order.

B1: anti-CNTN4 129 chimeric IgG4-S228P (antibody, V domains shown)
VH: AVTLDESEGGLQTPGGALSLVCKASGFTFSSFNMFWVRQAPGKGLEYVAEISGGGGSTWYAPAVKGRATISRDNGQSTVRLQLNNLRAEDTGTYYCAKSADTWSYGAATIDAWGHGTEVIVSS
VL: ALTQPSSVSANLGETVKITCSGSSGSYGWYQQKSPGSAPVTLIYDNTNRPSDIPSRFSGSGSGSTGTLTITGVRAEDEAVYYCGGYDGSTDVFGAGTTLTVL
notes: chicken-human chimeric IgG4-S228P made from S129, kappa light chain constant region (Kappa select); also called A-01; LAHA
As usually defined, the Kd is the concentration at which binding is half-saturated. Lower therefore signals tighter binding. Molecule B1 yielded a Kd of 33.6 nM.
